Measured values as given in PMC6763467, “Structural insight into glucose repression of the mannitol operon” (Scientific Reports, 2019).
Residue numbers refer to the chain shown, from its start.

T1: His-MtlR(E108S) (E. coli, UniProt P0AF10 1-195, E108S)
T1 construct: Mannitol operon repressor MtlR of E. coli, made by site-directed mutagenesis of pET-HisMtlR; also called E108S single mutant
T1 sequence: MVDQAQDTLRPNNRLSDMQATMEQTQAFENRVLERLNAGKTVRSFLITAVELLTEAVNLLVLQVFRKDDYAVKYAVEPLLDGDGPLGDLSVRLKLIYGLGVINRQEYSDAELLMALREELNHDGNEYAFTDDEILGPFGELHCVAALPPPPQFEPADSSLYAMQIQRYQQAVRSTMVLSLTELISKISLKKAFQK

T2: His-MtlR(E140S) (E. coli, UniProt P0AF10 1-195, E140S)
T2 construct: Mannitol operon repressor MtlR of E. coli, made by site-directed mutagenesis of pET-HisMtlR; also called E140S single mutant
T2 sequence: T1 sequence with S108E, E140S

T3: His-MtlR(L112W) (E. coli, UniProt P0AF10 1-195, Leu112 was mutated to Trp)
T3 construct: Mannitol operon repressor MtlR of E. coli, made by site-directed mutagenesis of pET-HisMtlR; also called Leu112 mutated to Trp
T3 sequence: T1 sequence with S108E, L112W

T4: His-MtlR(A115W) (E. coli, UniProt P0AF10 1-195, A115W)
T4 construct: Mannitol operon repressor MtlR of E. coli, made by site-directed mutagenesis of pET-HisMtlR; also called A115W mutant of His-tagged ecMtlR
T4 sequence: T1 sequence with S108E, A115W

B1: E. coli MtlR fused with His6-tag (ecHisMtlR), wild type (natural protein)
chain: T1 sequence with S108E
notes: Mannitol operon repressor MtlR of E. coli (cloned from genomic DNA of MG1655, K-12); ecHisMtlR is about 23 kDa with the tag; probably the whole protein (about 23 kDa with tag); Homodimer by SEC-MALS; also called wild-type His-MtlR; ecMtlR
B2: E. coli HPr labelled with the dye NT-647 (natural protein)
chain: not shown
modifications: dye NT-647 coupled by N-hydroxysuccinimide (NHS) to lysine residues
notes: Histidine phosphocarrier protein HPr of E. coli, 9 kDa; Same protein as m2, fluorescently labelled for microscale thermophoresis; also called labeled HPr; source: E. coli, overexpressed, purified (MonoQ, Superdex 75), then labelled with NT-647-NHS
B3: E. coli histidine phosphocarrier protein HPr (dephosphorylated, untagged) (natural protein)
chain: not shown
notes: Histidine phosphocarrier protein HPr of E. coli, 9 kDa; Untagged; probably the whole protein (9 kDa); also called ecHPr; source: E. coli, overexpressed, purified (MonoQ, Superdex 75); for the complex overexpressed in E. coli GI698 harboring pSP100 and co-purified with MtlR

Experiments:
[1] = target: the molecule itself; experiment: SEC-MALS; Superdex 200 increase 5/150 GL, binding buffer as mobile phase, 0.2 ml/min; HisMtlR alone (40 μg) and in complex with HPr (60 μg); concentration by refractive index
His-MtlR(E108S) [2] = target: T1, His-MtlR(E108S); experiment: MST; Monolith NT.115; serial dilutions of MtlR variants mixed 1:1 with NT-647-labelled HPr; 20 mM Tris-HCl pH 7.5, 50 mM NaCl, 2 mM β-mercaptoethanol, 0.05% BSA, 0.05% Tween-20, 5% glycerol; conditions: both partners purified
[3] = target: B1; experiment: as above; conditions: both partners purified
His-MtlR(E140S) [4] = target: T2, His-MtlR(E140S); experiment: as above; conditions: both partners purified
[5] = target: B1; experiment: SEC; gel filtration chromatography of purified MtlR and HPr from E. coli and V. vulnificus (Supplementary Fig. 4); conditions: both partners purified
His-MtlR(L112W) = target: T3, His-MtlR(L112W); experiment: pull-down; His-MtlR (200 μg) mixed with HPr (200 μg) in 20 mM Tris-HCl pH 7.5, 50 mM NaCl, 2 mM β-mercaptoethanol, 5% glycerol; Talon metal affinity chromatography, 3 washes with 10 mM imidazole, elution with 150 mM imidazole; SDS-PAGE, Coomassie; conditions: both partners purified
His-MtlR(A115W) = target: T4, His-MtlR(A115W); experiment: as above; conditions: both partners purified
His-MtlR(E140S) [6] = target: T2, His-MtlR(E140S); experiment: as above; conditions: both partners purified
His-MtlR(E108S) [7] = target: T1, His-MtlR(E108S); experiment: pull-down; His-MtlR (200 μg) mixed with 20 μl of EI-overproducing cell lysate, 200 μg of HPr, 2 mM MgCl2 and 50 μl of Talon resin, in the absence or presence of 2 mM PEP; SDS-PAGE, Coomassie; conditions: both partners purified

B1
stoichiometry N [1]: 2

B2
Kd (His-MtlR(E108S) [2]): 1420 ± 80 nM | Kd [3]: ~21 nM | Kd (His-MtlR(E140S) [4]): 1530 ± 110 nM

B3
binding result [5]: binds | binding result (His-MtlR(L112W)): binds | binding result (His-MtlR(A115W)): binds | binding result (His-MtlR(E140S) [6]): binds | binding result (His-MtlR(E108S) [7]): binds
